Data taken from US20210047398A1, “ASPROSIN, A FAST-INDUCED GLUCOGENIC PROTEIN HORMONE” (Baylor College of Medicine, priority 2016, published 2021).

Legend:
AgRP neurons = assay: Whole-cell patch clamp recordings on AgRP neurons; format: cell-based, mice
Experimental: (§1) Electrophysiology—Whole-cell patch clamp recordings were performed on identified AgRP neurons or POMC neurons in the brain slices containing the arcuate nucleus of the hypothalamus (ARH). In particular, to identify AgRP neurons, the inventors crossed Rosa26-tdTOMATO allele onto the regular AgRP-Cre mice (Tong et al., 2008) to generate AgRP-Cre/Rosa26-tdTOMATO mice, which express TOMATO selectively in AgRP/NPY neurons. In some studies, the inventors crossed NPY-GFP mice (Pinto et al., 2004) with NPS mice to generate NPY-GFP mice with or without the NPS mutation, and GFP-labelled neurons in the arcuate nucleus were recorded. In order to record POMC neurons, the inventors crossed Rosa26-tdTOMATO allele onto the POMC-CreERT2 mice (Berglund et al., 2013) to generate POMC-CreERT2/Rosa26-tdTOMATO mice, which express TOMATO selectively in mature POMC neurons upon tamoxifen induction (0.2 mg/g, i.p. 6 weeks of age). In some studies, the inventors also crossed the AgRP-DTR allele onto POMC-GFP mice, and these mice received DT or saline injections (described above) to generate mice with or without AgRP neurons ablated.
(§2) Six to twelve-week old mice were deeply anesthetized with isoflurane and transcardially perfused with a modified ice-cold sucrose-based cutting solution (pH 7.3) containing 10 mM NaCl, 25 mM NaHCO3, 195 mM Sucrose, 5 mM Glucose, 2.5 mM KCl, 1.25 mM NaH2PO4, 2 mM Na-Pyruvate, 0.5 mM CaCl2, and 7 mM MgCl2, bubbled continuously with 95% O2 and 5% CO2 (Ren et al., 2012). The mice were then decapitated, and the entire brain was removed and immediately submerged in the cutting solution. Slices (250 μm) were cut with a Microm HM 650V vibratome (Thermo Scientific). Three brain slices containing the arcuate nucleus were obtained for each animal (Bregma −2.06 mm to −1.46 mm; Interaural 1.74 mm to 2.34 mm), and recordings were made at levels throughout this brain region. The slices were recovered for 1 h at 34° C. and then maintained at room temperature in artificial cerebrospinal fluid (aCSF, pH 7.3) containing 126 mM NaCl, 2.5 mM KCl, 2.4 mM CaCl2, 1.2 mM NaH2PO4, 1.2 mM MgCl2, 11.1 mM glucose, and 21.4 mM NaHCO3) saturated with 95% O2 and 5% CO2 before recording.
(§3) Slices were transferred to a recording chamber and allowed to equilibrate for at least 10 min before recording. The slices were superfused at 34° C. in oxygenated aCSF at a flow rate of 1.8-2 ml/min. GFP or TOMATO-labeled neurons in the ARH were visualized using epifluorescence and IR-DIC imaging on an upright microscope (Eclipse FN-1, Nikon) equipped with a moveable stage (MP-285, Sutter Instrument). Patch pipettes with resistances of 3-5 MΩ were filled with intracellular solution (pH 7.3) containing 128 mM K-Gluconate, 10 mM KCl, 10 mM HEPES, 0.1 mM EGTA, 2 mM MgCl2, 0.05 mM Na-GTP and 0.05 mM Mg-ATP. Recordings were made using a MultiClamp 700B amplifier (Axon Instrument), sampled using Digidata 1440A and analyzed offline with pClamp 10.3 software (Axon Instruments). Series resistance was monitored during the recording, and the values were generally <10 MΩ and were not compensated. The liquid junction potential was +12.5 mV, and was corrected after the experiment. Data were excluded if the series resistance increased dramatically during the experiment or without overshoot for action potential. Currents were amplified, filtered at 1 kHz, and digitized at 20 kHz. Current clamp was engaged to test neural firing frequency and resting membrane potential (RM) at the baseline and puff delivered recombinant Asprosin (500 ms at various concentrations indicated in the figures). For the asprosin antibody pre-incubation experiment, asprosin and anti-asprosin mAB or IgG were gently mixed at a 1:100 ratio, and then kept on ice for one hour before recording. After AgRP or POMC neuron response to asprosin alone was confirmed, the mixture of recombinant asprosin and anti-asprosin mAB or IgG was perfused to treat the AgRP or POMC neurons for 4 minutes. […]

liver = assay: Liver cAMP level and PKA activity after subcutaneous injection; format: in vivo, mice; conditions: single 30 μg dose, 20 minutes
Text: […] Data are represented as the mean±SEM.
Cell Culture. […] Results were normalized to protein content.

POMC neurons = assay: Whole-cell patch clamp recordings on POMC neurons; format: cell-based, mice
Experimental: as §1, §2, §3

B1: recombinant asprosin: 146 amino acid E. coli expressed fusion protein: 6 amino acid N-terminal His tag and 140 amino acid wild type asprosin (FBN1 2732-2871) (protein)
chain: HHHHHHSTNETDASNIEDQSETEANVSLASWDVEKTAIFAFNISHVSNKVRILELLPALTTLTNHNRYLIESGNEDGFFKINQKEGISYLHFTKKKPVAGTYSLQISSTPLYKKKELNQLEDKYDKDYLSGELGDNLKMKIQVLLH
Q: What does the source list for B1?
A: miniature excitatory post-synaptic current (mEPSC) of AgRP neurons (AgRP neurons): increased the amplitude but not frequency; proportion of AgRP neurons asprosin-responsive (AgRP neurons): about 50%; dose-dependency of AgRP neuron activation (firing frequency, membrane potential) (AgRP neurons; 0.01-100 nM, intact slices): dose-dependent activation; asprosin-mediated activation with synaptic inputs pharmacologically inhibited (AgRP neurons; TTX or TTX + AP-5 + CNQX + bicuculline): no decrease in asprosin-mediated activation; EC50 for AgRP neuron activation (AgRP neurons; firing frequency and membrane potential): nanomolar to subnanomolar range; AgRP neuron firing frequency and membrane potential (AgRP neurons; recombinant asprosin puff): acutely induced their activation; liver cAMP and protein kinase A activity (liver): sufficient to increase liver cAMP and protein kinase A activity; miniature inhibitory post-synaptic current (mIPSC) in POMC neurons (POMC neurons): increased the frequency but not amplitude; POMC neuron firing frequency with AgRP neuron ablation (POMC neurons; AgRP neuron ablated mice): little effect; asprosin-mediated hyperpolarization in POMC neurons with AgRP neuron ablation (POMC neurons; AgRP neuron ablated mice): completely prevented; POMC neuron hyperpolarization with blockade of glutamatergic inputs (POMC neurons; TTX + CNQX + AP5): did not affect; ability to hyperpolarize POMC neurons, GABAergic input (POMC neurons; TTX + bicuculline): dependent on intact GABAergic input; proportion of POMC neurons inhibited (POMC neurons; reduced resting membrane potential and firing frequency): ~85%
